The test system of assay [1] is human IgG. Nature of the assay: IdeS cleavage assay of Ig classes: IgG. The class given is biochemical. On the procedure:
(§1) For standard IdeS activity assays, bacteria cultures were grown to OD620=0.4. Bacteria were pelleted by centrifugation and supernatants were sterile-filtered through a 0.22 μm membrane (Millipore) prior to use. For activity assays, […] of supernatant were mixed with 5 μl of IgG (10 mg/ml, Sigma) and the volume was adjusted with PBS to 100 μl. For screening of IdeS activity in different S. progenes strains, E64 was added to a final concentration of 40 μM. The mixtures were incubated at 37° C. for 30 min and samples were analyzed by 12% SDS-PAGE. For cleavage assays of different classes of Ig, purified IdeS (0.3 μg/ml) was incubated with 3 μg Ig for 2 h at 37° C., and analyzed by 12% SDS-PAGE analysis.

For assay [2], the system named is human IgA. The experiment in a line: IdeS cleavage assay of Ig classes: IgA. The class given is biochemical. As to conditions: purified IdeS, 2 h at 37° C. As to the method:
as §1

The test system of assay [3] is human IgD. The experiment in a line: IdeS cleavage assay of Ig classes: IgD. The class given is biochemical. To be noted: purified IdeS, 2 h at 37° C. On the procedure: as §1
The test system of assay [4] is different subclasses of IgG. The experiment in a line: IdeS activity against the subclasses of IgG. The class given is biochemical, human.
The test system of assay [5] is whole human plasma. Nature of the assay: Incubation of human plasma with IdeS. It is filed as biochemical.
Assay [6] deals with goat IgG. Nature of the assay: IdeS species restrictions: goat IgG. It is filed as biochemical.
Assay [7] concerns the target T1, fibrinogen (Homo sapiens, UniProt P02671+P02675+P02679).
T1 sequence (P02671 20-629 limits assumed): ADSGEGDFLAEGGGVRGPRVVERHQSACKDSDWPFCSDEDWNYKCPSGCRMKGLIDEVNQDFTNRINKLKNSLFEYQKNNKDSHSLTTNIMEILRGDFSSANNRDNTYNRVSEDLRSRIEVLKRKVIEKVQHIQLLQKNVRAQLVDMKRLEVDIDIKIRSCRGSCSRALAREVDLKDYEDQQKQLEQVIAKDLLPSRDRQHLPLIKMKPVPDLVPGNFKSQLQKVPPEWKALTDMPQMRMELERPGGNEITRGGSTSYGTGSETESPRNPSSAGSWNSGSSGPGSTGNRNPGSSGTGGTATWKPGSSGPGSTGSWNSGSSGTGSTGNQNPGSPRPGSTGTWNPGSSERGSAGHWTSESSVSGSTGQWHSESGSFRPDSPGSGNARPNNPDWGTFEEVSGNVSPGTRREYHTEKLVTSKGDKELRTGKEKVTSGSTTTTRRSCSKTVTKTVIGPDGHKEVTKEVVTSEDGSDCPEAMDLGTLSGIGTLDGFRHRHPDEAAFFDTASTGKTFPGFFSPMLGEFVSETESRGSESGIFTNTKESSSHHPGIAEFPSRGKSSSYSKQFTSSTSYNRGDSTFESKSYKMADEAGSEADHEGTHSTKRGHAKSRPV
T1 sequence (P02675 31-491): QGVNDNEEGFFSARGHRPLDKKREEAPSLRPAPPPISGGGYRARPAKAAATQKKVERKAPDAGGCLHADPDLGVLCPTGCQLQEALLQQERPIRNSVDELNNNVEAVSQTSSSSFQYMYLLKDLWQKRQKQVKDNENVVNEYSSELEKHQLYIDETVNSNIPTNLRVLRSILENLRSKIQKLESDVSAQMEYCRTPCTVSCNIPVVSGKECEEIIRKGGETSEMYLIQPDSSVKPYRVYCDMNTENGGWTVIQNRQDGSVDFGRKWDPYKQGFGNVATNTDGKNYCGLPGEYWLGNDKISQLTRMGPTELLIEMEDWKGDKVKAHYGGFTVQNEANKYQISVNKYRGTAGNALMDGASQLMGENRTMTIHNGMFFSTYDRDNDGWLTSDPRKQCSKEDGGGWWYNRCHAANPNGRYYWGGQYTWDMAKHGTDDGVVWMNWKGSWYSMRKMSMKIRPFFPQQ
T1 sequence (P02679 27-453): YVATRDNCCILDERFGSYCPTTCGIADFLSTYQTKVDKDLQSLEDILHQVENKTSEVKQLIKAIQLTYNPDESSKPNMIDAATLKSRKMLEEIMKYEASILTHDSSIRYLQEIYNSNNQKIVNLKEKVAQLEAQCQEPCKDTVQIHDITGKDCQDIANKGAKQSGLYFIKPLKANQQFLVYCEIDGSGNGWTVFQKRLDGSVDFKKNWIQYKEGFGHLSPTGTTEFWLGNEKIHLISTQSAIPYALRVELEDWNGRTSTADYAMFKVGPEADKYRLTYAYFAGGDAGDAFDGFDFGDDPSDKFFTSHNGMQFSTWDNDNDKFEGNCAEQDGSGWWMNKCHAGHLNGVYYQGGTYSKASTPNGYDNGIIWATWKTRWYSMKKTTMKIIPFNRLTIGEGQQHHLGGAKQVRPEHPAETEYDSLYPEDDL
Nature of the assay: IdeS cleavage of other human proteins: fibrinogen. It is filed as biochemical.

The target in assay [8] is transferrin (Homo sapiens, UniProt P02787). The experiment in a line: IdeS cleavage of other human proteins: transferrin. It is filed as biochemical.
Sequence of transferrin (P02787 20-698): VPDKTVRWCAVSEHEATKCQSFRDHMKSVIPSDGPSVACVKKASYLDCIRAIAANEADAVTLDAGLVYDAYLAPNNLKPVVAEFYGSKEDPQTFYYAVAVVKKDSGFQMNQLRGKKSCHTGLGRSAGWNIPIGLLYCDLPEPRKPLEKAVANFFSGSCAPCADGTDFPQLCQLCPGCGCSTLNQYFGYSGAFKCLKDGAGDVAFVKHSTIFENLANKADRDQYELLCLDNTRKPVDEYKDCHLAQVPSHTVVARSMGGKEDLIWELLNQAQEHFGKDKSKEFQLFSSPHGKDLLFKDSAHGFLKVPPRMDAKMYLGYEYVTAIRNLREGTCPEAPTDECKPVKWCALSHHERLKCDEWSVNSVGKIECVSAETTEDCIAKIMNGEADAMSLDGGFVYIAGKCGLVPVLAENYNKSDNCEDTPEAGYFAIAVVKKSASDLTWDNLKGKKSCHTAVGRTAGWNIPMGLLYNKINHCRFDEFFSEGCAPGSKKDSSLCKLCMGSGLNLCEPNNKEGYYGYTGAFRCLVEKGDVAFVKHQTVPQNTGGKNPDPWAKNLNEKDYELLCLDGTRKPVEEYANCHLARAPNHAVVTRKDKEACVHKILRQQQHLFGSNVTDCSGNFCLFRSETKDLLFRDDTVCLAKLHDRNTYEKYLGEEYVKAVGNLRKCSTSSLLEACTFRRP
The target of assay [9] is T2, cystatin C (Homo sapiens, UniProt P01034).
T2 sequence (P01034 27-146): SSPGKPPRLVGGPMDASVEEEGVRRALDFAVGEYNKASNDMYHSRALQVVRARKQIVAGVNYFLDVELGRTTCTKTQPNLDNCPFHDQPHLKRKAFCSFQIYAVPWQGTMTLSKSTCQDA
Nature of the assay: IdeS cleavage of other human proteins: cystatin C. It is filed as biochemical.

For assay [10], the system named is synthetic peptide homologous to amino acids 234 to 241 of human IgG. The experiment in a line: IdeS activity towards peptides: IgG hinge peptide. It is filed as biochemical.
The nature of assay [11]: IdeS activity towards peptides: Z-LVG-CHN2. It is filed as biochemical. To be noted: excess IdeS.
Assay [12] deals with Fc-fragment generated by papain cleavage, including 12 amino acids of the hinge region. Nature of the assay: IdeS cleavage of papain-generated Fc-fragment. The class given is biochemical, human.
The subject of assay [13] is IgG bound to AP1 bacteria. The experiment in a line: IdeS cleavage of IgG bound to S. pyogenes bacterial surface. As to conditions: AP1 bacteria after absorption of non-immune or immune plasma. It is filed as cell-based, human.

B1: IdeS: new extracellular cysteine protease produced by S. pyogenes, highly specific for IgG; SEQ ID NO: 1 (protein)
chain: DSFSANQEIRYSEVTPYHVTSVWTKGVTPPANFTQGEDVFHAPYVANQGWYDITKTFNGKDDLLCGAATAGNMLHWWFDQNKDQIKRYLEEHPEKQKINFNGEQMFDVKEAIDTKNHQLDSKLFEYFKEKAFPYLSTKHLGVFPDHVIDMFINGYRLSLTNHGPTPVKEGSKDPRGGIFDAVFTRGDQSKLLTSRHDFKEKNLKEISDLIKKELTEGKALGLSHTYANVRINHVINLWGADFDSNGNLKAIYVTDSDSNASIGMKKYFVGVNSAGKVAISAKEIKEDNIGAQVLGLFTLSTGQDSWNQTN
modifications: S. Pyogenes
As for B1, the “degradation of human IgG” value in assay [1] (purified IdeS, 2 h at 37° C.) is reported as “only IgG was degraded”. In addition, the “cleavage of human IgG” value in assay [1] (species restrictions) is “cleave”. Also, the “degradation of human IgA” value in assay [2] is “only IgG was degraded”. Besides, the “degradation of human IgD” value in [3] is “only IgG was degraded”. In addition, in assay [4], the “digestion of the different subclasses of IgG” value was “all were susceptible for IdeS digestion”. The “degradation products in human plasma” value in assay [5] (purified IdeS) was “only the 31 kDa IgG-derived band and no additional degradation products could be identified”. The cleavage products result in [5] (whole human plasma, further studies) is listed as “No cleavage products could be detected”. The “cleavage of goat IgG” value in assay [6] is given as “cleave”. The “cleavage products, fibrinogen” value in assay [7] is listed as “No cleavage products could be detected”. Besides, the “cleavage products, transferrin” value in assay [8] is listed as “No cleavage products could be detected”. For the same molecule, the “cleavage products, cystatin C” value in assay [9] is “No cleavage products could be detected”. Moreover, the “degradation of synthetic peptide (amino acids 234 to 241 of human IgG)” value in assay [10] was “did not reveal any degradation”. The “cleavage of Z-LVG-CHN2” value in [11] is “Neither was the synthetic peptide Z-LVG-CHN2, which inhibits IdeS activity, cleaved”. For the same molecule, the “cleavage of papain-generated Fc-fragment” value in assay [12] was “is cleaved”. For the same molecule, in [13], the “cleavage of IgG bound to the bacterial surface (31 kDa band)” value is “in both cases IgG was cleaved”.

For the origin of these results see patent US7666582B2, “IdeS, an IgG-degrading enzyme of Streptococcus pyogenes” (Hansa Medical Research AB, priority 2001, dated 2010).
